The target in assay [1] is AAV2 capsid mutant I-587 (P1 peptide inserted after amino acid 587) (AAV2) (UniProt P03135). Nature of the assay: A20 capsid ELISA on CsCl-purified particles. (An ELISA detects its analyte on a solid surface through an enzyme-linked reagent.)
The target in assay [2] is AAV2 capsid mutant I-447 (P1 peptide inserted after amino acid 447) (AAV2) (UniProt P03135). In words: A20 capsid ELISA on CsCl-purified particles.
Assay [3] addresses Wild-type AAV2 capsid (AAV2) (UniProt P03135). Nature of the assay: A20 capsid ELISA on CsCl-purified particles.
The target in assay [4] is AAV2 capsid VP3 mutant ins587 (insertion after amino acid 587, site LQRGN RQAAT) (AAV2) (UniProt P03135). Nature of the assay: A20 capsid ELISA on virus stock.
Assay [5] has as its target AAV2 capsid VP3 mutant ins447 (insertion after amino acid 447, site YYLSR TNTPS) (AAV2) (UniProt P03135). In words: A20 capsid ELISA on virus stock.
Assay [6] deals with AAV2 capsid VP1 mutant ΔBH (deletion between BsrBI and HindIII cleavage sites of VP-1, 29 amino acids) (AAV2) (UniProt P03135). Nature of the assay: A20 capsid ELISA on virus stock.
The target of assay [7] is Wild-type AAV2 capsid (AAV2) (UniProt P03135). In words: A20 capsid ELISA on virus stock.
The target in assay [8] is AAV2 capsid VP1 mutant ΔBH+L (deletion between BsrBI and HindIII, and insertion of the P1 peptide) (AAV2) (UniProt P03135). In words: A20 capsid ELISA on virus stock.
Assay [9] has as its target AAV2 capsid VP1 mutant B+L (insertion of the P1 peptide at the BsrBI cleavage site) (AAV2) (UniProt P03135). Nature of the assay: A20 capsid ELISA on virus stock.
Assay [10] has as its target AAV2 capsid VP1 mutant ΔXho (deletion between the XhoI-XhoI cleavage sites of VP-1, 62 amino acids) (AAV2) (UniProt P03135). Nature of the assay: A20 capsid ELISA on virus stock.

Consider A20 monoclonal antibody, for which the values for the titer (ELISA with A20 MAb) in [1], in assay [2] and in [3] were 3e+12 particles/ml, 8e+11 particles/ml and 6e+12 particles/ml, respectively. In addition, the capsid titer (ELISA with A20 MAb) in [4] is 2e+10 particles/ml; in assay [5], 4e+10 particles/ml; in [6] it was 4e+09 particles/ml; in [7], 1e+11 particles/ml; in [8], 5e+10 particles/ml; in [9], 5e+09 particles/ml. This substance had a capsid titer (ELISA with A20 MAb) in [10] of 5e+10 particles/ml.
